Laboratory results as given in patent US20240216484A1 (URSAPHARM ARZNEIMITTEL, published 2024).

biological target: SARS-CoV-2 spike protein, extracellular domain (1-1213), recombinant from HEK293 cells (SARS-CoV-2, UniProt P0DTC2 14-1213)

Row | Binder | koff [s⁻¹] | kon [M⁻¹ s⁻¹]
1 | HZI 2-05 (Anlec in TBS; lectin batch isolated from bromelain) (other) MSGLVKLGLWGGNEGTLQDIDGHPTRLTKIVIRSAHAIDALQFDYVEDGKTFAAGQWGGNGGKSDTIEFQPGEYLIAIKGTTGALGAVTNLVRSLTFISNMRTYGPFGLEHGTPFSVPVASGRIVAFYGRFGSLVDAFGIYLMPY | 0.005 | 133
2 | HZI 2-10 (Anlec in TBS; lectin batch isolated from bromelain, protease inhibited with MMTS) (other) MSGLVKLGLWGGNEGTLQDIDGHPTRLTKIVIRSAHAIDALQFDYVEDGKTFAAGQWGGNGGKSDTIEFQPGEYLIAIKGTTGALGAVTNLVRSLTFISNMRTYGPFGLEHGTPFSVPVASGRIVAFYGRFGSLVDAFGIYLMPY | 0.003 | 286
3 | HZI 2-06 (Anlec in dist. water; lectin batch isolated from bromelain) (other) MSGLVKLGLWGGNEGTLQDIDGHPTRLTKIVIRSAHAIDALQFDYVEDGKTFAAGQWGGNGGKSDTIEFQPGEYLIAIKGTTGALGAVTNLVRSLTFISNMRTYGPFGLEHGTPFSVPVASGRIVAFYGRFGSLVDAFGIYLMPY | 0.008 | 359
4 | Acm-JRL 2 (Anlec in TBS, Batch 2) (other) MSGLVKLGLWGGNEGTLQDIDGHPTRLTKIVIRSAHAIDALQFDYVEDGKTFAAGQWGGNGGKSDTIEFQPGEYLIAIKGTTGALGAVTNLVRSLTFISNMRTYGPFGLEHGTPFSVPVASGRIVAFYGRFGSLVDAFGIYLMPY | 0.003 | –
